Data from US20160200813A1.

Columns and labels:
[1] = target: Mouse LRP-8 expressed on HEK293 cells (mouse) (UniProt Q924X6); assay: cell-based binding assay, mLRP8
[2] = target: Mouse LRP-8 expressed on HEK293 cells (mouse) (UniProt Q924X6); assay: cell-based MSD binding assay on 293H-mLRP8 cells; curve label LRP8-11H1
[3] = target: Mouse LRP-8 expressed on HEK293 cells (mouse) (UniProt Q924X6); assay: mLRP8 cell binding
[4] = target: Mouse LRP-8 expressed on HEK293 cells (mouse) (UniProt Q924X6); assay: cell-based ECL-MSD, 10 ug/ml Ab, mouse-LRP-8-HEK293
[5] = target: Mouse LRP-8 expressed on HEK293 cells (mouse) (UniProt Q924X6); assay: fit of the FACS titration of FIG. 12A on mLRP8-transfected HEK293 cells; the column head prints EC50 only, nM is from legend paragraph 78 and the axis of FIG. 12A
[6] = target: Mouse LRP-8 expressed on HEK293 cells (mouse) (UniProt Q924X6); assay: cell-based binding on MOUSE LRP8-HEK293, supernatant 1:125
[7] = target: Mouse LRP-8 expressed on HEK293 cells (mouse) (UniProt Q924X6); assay: cell-based binding on MOUSE LRP8-HEK293, supernatant 1:25
[8] = target: Mouse LRP-8 expressed on HEK293 cells (mouse) (UniProt Q924X6); assay: cell-based binding on MOUSE LRP8-HEK293, supernatant 1:5
[9] = target: Mouse LRP-8 expressed on HEK293 cells (mouse) (UniProt Q924X6); assay: FACS, mouse LRP8 cells

B1: anti-LRP-8 BGK-9D10-2 antibody (CL-105967) (antibody, V domains shown)
VH: EVQLVESGGGLVQSGRSLKLSCAASGFTFSNYYMAWVRQAPKKGLEWVATITTSGSRSFYPDSVKGRFTISRDNAKSSLYLQINSLKSEDTATYYCARRGPLGYFDHWGRGVMVTVSS
VL: DIQMTQSPPSLPASLGDKVTITCQASQNINKYIAWYQQKPGKAPRLLIRFTSTLESDTPSRFSGSGSGRDYSFSISNVESEDFASYYCLHYDNLPPWTFGGGTKLELK
In the case of B1, the EC50 [1] is reported as 0.43 nM.

B2: anti-LRP-8 BGK-7F7 chimeric antibody (CL-105960) (antibody, V domains shown)
VH: QVTLKESGPGILQPSQTLSLTCTFSGFSLSTYGLGVGWIRQPSGKGLEWLANIWWDDAKYYNPSLKNRLTISKDTSNNQAFLKIPNVDTADTARYYCARTTKPYYFDYWGQGVMVTVSS
VL: HFVLAQPNSVSTNLGSTVKLSCKRSTANIGSNYVNWYQQHEGRSPTTLIYRDDRRPDGVPDRFSGSIDRSSNSALLTINNVQTEDEADYFCQSYSSGINIFGGGTKLTVL
Work on B2 yielded an EC50 [1] of 3.92 nM.

B3: anti-LRP-8 BGK-6B5-2 chimeric antibody (CL-105969) (antibody, V domains shown)
VH: QVSLQESGPGILQPSQTLSLTCTFSGFSLSTFGMGVGWIRQPSGKGLEWLANIWWDDDKYYNPSLKNRLTISKDTSNNQAFLKITNVDTADTATYYCARTAKPYYFDYWGHGVMVTVSS
VL: HFVLAQPNSVSTNLGNTVKLSCKRSTGNIGSNYVNWYQQHEGRSPTTLIYRDDKRPDGVPDRFSGSFDRSSNSALLTINNVQTEDEADYFCQSYNSGINFFGGGTKLTVL
B3 gave an EC50 [1] of 41.8 nM.

B4: anti-LRP-8 BGK-7A11 chimeric antibody (CL-105959) (antibody, V domains shown)
VH: QVTLKESGPGILQPSQTLSLTCTFSGFSLSTYGMGVGWIRQPAGTGLEWLANIWWDDDKYYNPSLKNRLTISKDTSNNQVFLKITNVDTADTATYYCARTTKPYYFDYWGQGVMVTVSS
VL: HFVLAQPNSVSTNLGSTVKLSCKRSTGNSGSNYVNWYQQYEGRSPTTMIYRDDKRPDGVPDRFSGSIDRSSNSALLTINNVQTEDEADYFCQSYSSGINIFGGGTKLTVL
Work on B4 yielded an EC50 [1] of 27.6 nM.

B5: humanized ML199-11H1.5B2VH.1/VL.1a (antibody, V domains shown)
VH: EVQLVESGGGLVKPGGSLRLSCAASRFTFSNYGMSWVRQAPGKGLEWVSTISSGGRYTYYPDSVKGRFTISRDNAKNSLYLQMNSLRAEDTAVYYCARDYLYAMDYWGQGTTVTVSS
VL: DVVMTQSPLSLPVTPGEPASISCRSSQSLVYSNGNTYLHWYLQKPGQSPQVLMYKVSNRFSGVPDRFSGSGSGTDFTLKISRVEAEDVGVYFCSQSTHVPLTFGQGTKLEIK
In the case of B5, the EC50 [2] is reported as 0.3 nM and the EC50 [3] is reported as 13.4 nM.

B6: humanized ML199-11H1.5B2VH.1a/VL.1 (antibody, V domains shown)
VH: EVQLVESGGGLVKPGGSLRLSCAASRFTFSNYGMSWVRQAPGKGLEWVATISSGGRYTYYPDSVKGRFTISRDNAKNSLYLQMNSLRAEDTAVYYCARDYLYAMDYWGQGTTVTVSS
VL: DIVMTQSPLSLPVTPGEPASISCRSSQSLVYSNGNTYLHWYLQKPGQSPQLLIYKVSNRFSGVPDRFSGSGSGTDFTLKISRVEAEDVGVYYCSQSTHVPLTFGQGTKLEIK
Work on B6 yielded an EC50 [3] of 6.83 nM.

B7: anti-LRP-8 ML201-8F3.3D7 murine antibody (muFc) (antibody, V domains shown)
VH: EVQLVESGGDLVKPGGSLKLSCAASRFTFSNFGMSWVRQTPDKRLEWVATISSGGRYTYYPDSVKGRFTISRDNAKNTLYLQMSSLRSEDTAMYYCARDYLYAMDYWGQGTSVTVSS
VL: DVVMTQTPLSLPVSLGDQASISCRSSQSLVYSNGNTYLHWYLQKPGQSPKVLMYKVSNRFSGVSDRFSGSGSGTDFTLKISRVEAEDLGVYFCSQSTHVPLTFGAGTKLELK
Work on B7 yielded a fold over mIgG control [4] of 21.1 fold.

B8: humanized ML199-11H1.5B2VH.1/VL.1 (antibody, V domains shown)
VH: EVQLVESGGGLVKPGGSLRLSCAASRFTFSNYGMSWVRQAPGKGLEWVSTISSGGRYTYYPDSVKGRFTISRDNAKNSLYLQMNSLRAEDTAVYYCARDYLYAMDYWGQGTTVTVSS
VL: DIVMTQSPLSLPVTPGEPASISCRSSQSLVYSNGNTYLHWYLQKPGQSPQLLIYKVSNRFSGVPDRFSGSGSGTDFTLKISRVEAEDVGVYYCSQSTHVPLTFGQGTKLEIK
B8 gave an EC50 [3] of 22.4 nM.

B9: humanized ML199-11H1.5B2VH.1a/VL.1b (antibody, V domains shown)
VH: EVQLVESGGGLVKPGGSLRLSCAASRFTFSNYGMSWVRQAPGKGLEWVATISSGGRYTYYPDSVKGRFTISRDNAKNSLYLQMNSLRAEDTAVYYCARDYLYAMDYWGQGTTVTVSS
VL: DVVMTQSPLSLPVTPGEPASISCRSSQSLVYSNGNTYLHWYLQKPGQSPQVLIYKVSNRFSGVPDRFSGSGSGTDFTLKISRVEAEDVGVYYCSQSTHVPLTFGQGTKLEIK
In the case of B9, the EC50 [3] is reported as 19.6 nM.

B10: humanized ML199-11H1.5B2VH.1/VL.1b (antibody, V domains shown)
VH: EVQLVESGGGLVKPGGSLRLSCAASRFTFSNYGMSWVRQAPGKGLEWVSTISSGGRYTYYPDSVKGRFTISRDNAKNSLYLQMNSLRAEDTAVYYCARDYLYAMDYWGQGTTVTVSS
VL: DVVMTQSPLSLPVTPGEPASISCRSSQSLVYSNGNTYLHWYLQKPGQSPQVLIYKVSNRFSGVPDRFSGSGSGTDFTLKISRVEAEDVGVYYCSQSTHVPLTFGQGTKLEIK
B10 gave an EC50 [3] of 7.92 nM.

B11: humanized ML199-11H1.5B2VH.1a/VL.1a (antibody, V domains shown)
VH: EVQLVESGGGLVKPGGSLRLSCAASRFTFSNYGMSWVRQAPGKGLEWVATISSGGRYTYYPDSVKGRFTISRDNAKNSLYLQMNSLRAEDTAVYYCARDYLYAMDYWGQGTTVTVSS
VL: DVVMTQSPLSLPVTPGEPASISCRSSQSLVYSNGNTYLHWYLQKPGQSPQVLMYKVSNRFSGVPDRFSGSGSGTDFTLKISRVEAEDVGVYFCSQSTHVPLTFGQGTKLEIK
In the case of B11, the EC50 [3] is reported as 41.8 nM.

B12: anti-LRP-8 ML199-11H1.5B2 murine antibody (muFc) (antibody, V domains shown)
VH: EVQLVESGGDLVKPGGSLKLSCAASRFTFSNYGMSWVRQTPDKRLEWVATISSGGRYTYYPDSVKGRFTISRDNAKNTLYLQMSSLRSEDTAMYYCARDYLYAMDYWGQGTSVTVSS
VL: DVVMTQTPLSLPVSLGDQASISCRSSQSLVYSNGNTYLHWYLQKPGQSPKVLMYKVSNRFSGVSDRFSGSGSGTDFTLKISRVEAEDLGVYFCSQSTHVPLTFGAGTKLELK
With B12 the EC50 [5] was 8.36 nM and the fold over mIgG control [4] was 23.1 fold.

B13: anti-LRP-8 BGK.2C8.E6.D3 [r/m IgG2a/K] (antibody, V domains shown)
VH: QVTLKESGPGILQPSQTLSLTCTFSGFSLNTYGMGVGWVRQPSGKGLEWLANIWWDDDKFYNPSLKNRLTVSKDTSNNQAFLRITNGDTADTATYFCARILGEDIGGALDAWGQGTSVTVSS
VL: DTVLTQSPALAVSPGERVSISCRASEGVNSYMHWYQQNPGQQSKLLIYRTSNLASGVPARFGGSGSGTDFTLTIDPVEADDTATYFCQQSWNDPPTFGGGTKLELK
Binder B13 has a fold over isotype control [6] of 0.43 fold, a fold over isotype control [7] of 0.45 fold and a fold over isotype control [8] of 0.19 fold.

B14: anti-LRP-8 BGK.5D10.E4 [r/m IgG2a/K] (antibody, V domains shown)
VH: QVQLRETGPDLVQPTQTLSLTCTVSGFSLTNYPVQWVRQPPGSGLEWLGIMWPSGAADFNPALKSRLSISRDTSKSQFFLRMDNLQTDDTAIYFCARGRGYSSPYAMDAWGQGTSVTVSS
VL: DIQMTQSPASLSASLGETVSIECLASEDIYNNLAWYQQKPGKSPHLLIHFTSNLQDGVPSRFSGSGSGTQYSLKINSLESEDGATYFCLQDSEYPLTFGSGTKLEIK
B14 showed a fold over isotype control [6] of 0.16 fold, a fold over isotype control [7] of 0.16 fold and a fold over isotype control [8] of 0.04 fold.

B15: anti-LRP-8 antibody CL-135325 (antibody, V domains shown)
VH: EVQLVQSGGGLVQPGGSLRLSCAASGFTFSIYAMSWVRQAPGKGLEWVSVISCSAGSTYYADSVKGRFTISRDNSKNTLYLQMNSLRAEDTAVYYCARHSVHEEFPFDVWGQGTLVTVSS
VL: DIQMTQSPSSLSASVGDRVTITCRASQSIGSYLNWYQQKPGKAPKLLIYAASSLQSGVPSRFSGSGSGTDFTLTISSLQPEDFATYYCQQSYIPPLTFGGGTKVEIK
B15 was tested, and the FACS (ratio +/-) [9] was 21.2.

B16: anti-LRP-8 antibody CL-135359 (antibody, V domains shown)
VH: EVQLVQSGGGLVQPGGSLRLSCAASGFTFSSYAMSWVRQAPGKGLEWVSVISCSGGTTYYADSVKGRFTISRDNSKNTLYLQMNSLRAEDTAVYYCARNGGQFDLWGQGTLVTVSS
VL: DIQMTQSPSSLSASVGDRVTITCRASQGICTYLNWYQQKPGKAPKLLIYAASSLQSGVPSRFSGSGSGTDFTLTISSLQPEDFATYYCQQSYNPPLTFGGGTKVEIK
Binder B16 has an FACS (ratio +/-) [9] of 7.3.

B17: anti-LRP-8 BGK.6E3.F4 [r/m IgG2a/K] (antibody, V domains shown)
VH: EVQLVESGGGLVQPGKSLKLSCAASGFTFSDYNMAWVRQAPKKGLEWVATIMYDGSRTFYRDSVKGRYTFSRDNAKSTLYLQMDSLRSEDTATYYCATGRNWFAYWGQGTLVTVSS
VL: DIIMTQSPSSLAVSAGETVTINCKSSQSLLSSGKQKNYLAWYQQKPGQSPKLLIYLASTRESGVPDRFIGSGSGTDFTLTISSMQAEDLAIYYCQQHYDTPLTFGSGTKLEIK
Work on B17 yielded a fold over isotype control [6] of 0.21 fold, a fold over isotype control [7] of 0.44 fold and a fold over isotype control [8] of 0.72 fold.

B18: anti-LRP-8 antibody ab58216 (mFc) (antibody, V domains shown)
VH: EVHLQQSGPEVVKPGASVKISCKASGYIISGYFLNWVKQSHGKSLEWVGRINPYSGDTFFNQKFKGKATLTVDKSSNTAHMELRSLTSEDSAVFYCAREDIGRFAYWGQGTLVTVSA
VL: DVLMTQTPLSLPVSLGDQASISCRSSQTIVHSNGNTYLEWYLQKPGQSPKLLIYKVSNRFSGVPDRFSGSGSGTDFTLKISRVEAEDLGVYYCFQGSHAPPTFGGGTKLEIK
B18 showed a fold over mIgG control [4] of 19.2 fold.

B19: anti-LRP-8 ML201-2B4.2B1.2H10 murine antibody (muFc) (antibody, V domains shown)
VH: DVKLVASGGGLVKPGGSLKLSCAASGFTLSRYAMSWVRQTPEKRLEWVAYIRNGGDYIYYADTVKGRFTISRDNARNTLYLQMSSLKSEDTAMYYCTREGSYYNFDYWGQGTTLTVSS
VL: DVLMTQTPLSLPVSLGDQASISCRSSQSIVHSNGNTYLEWYLQKPGQSPNLLIFKVSNRFSGVPDRFIGSGSGTDFTLKISRVEAEDLGVYYCFQGSHVPWTFGGGTKLEIK
For B19, the fold over mIgG control [4] was 1.2 fold.
